According to publication PMC10819241:
Like-named read-outs stand apart in the source and are kept apart here.

Columns and labels:
[1] = molecular target: CTB-DV1EDIII (after TEV cleavage of hRID-CTB-DV1EDIII) (not stated | dengue virus serotype 1 (DenKor-07 strain)) (UniProt P01556)
[2] = molecular target: CTB-DV1EDIII (after TEV cleavage of hRID-CTB-DV1EDIII) (not stated | dengue virus serotype 1 (DenKor-07 strain)) (UniProt P01556); assay: SEC
[3] = molecular target: CTB-DV1EDIII (after TEV cleavage of hRID-CTB-DV1EDIII) (not stated | dengue virus serotype 1 (DenKor-07 strain)) (UniProt P01556); assay: SDS-PAGE without DTT and boiling (native SDS-PAGE)

Measured: stoichiometry N

CTB-DV1EDIII (after TEV cleavage of hRID-CTB-DV1EDIII) (from UniProt P01556 22-124)
5: all assays above
